Data on four molecules can be found in patent US12534534 (F STAR BETA, dated 2026).

Assay [1] has as its target human CD137 on primary human CD8+ T cells (human, UniProt Q07011 24-255). Kind of assay: cell-based or functional assay.
A further assay concerns the target T1, human OX40-mFc (human, UniProt P43489 29-214).
T1 construct: produced in-house; negative control in the ELISA; also called human OX40-mFc-Avi; not shown: mFc part
T1 sequence: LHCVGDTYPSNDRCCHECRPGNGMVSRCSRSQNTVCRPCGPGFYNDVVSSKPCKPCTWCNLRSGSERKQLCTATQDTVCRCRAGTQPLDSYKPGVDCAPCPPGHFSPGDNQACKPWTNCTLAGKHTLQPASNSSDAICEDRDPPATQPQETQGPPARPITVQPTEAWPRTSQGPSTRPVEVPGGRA
Put plainly: ELISA on streptavidin plates, mAb 0.1 to 300 nM. The procedure: (§1) Blocking solution was discarded and a dilution series of anti-CD137 mAb concentrations (0.1 to 300 nM, 3-fold dilutions) was added and incubated for 1 hour at room temperature whilst shaking at 450 rpm. Plates were washed 3× with 300 µl PBS/Tween 0.05%. Goat anti-human IgG (Fc fragment) antibody conjugated to Horseradish Peroxidase (Sigma, A0170) was diluted 1:10000 in PBS and 90 µl was added to the wells. After incubation for 1 hour at 4° C. whilst shaking at 450 rpm, plates were washed 3× with 300 µl PBS/Tween 0.05%, 100 µl TMB substrate (eBioscience, 00-4201-56) was added to each well. The reaction was stopped between 2-10 minutes after addition of TMB by the addition of 50 µl 1M sulphuric acid solution. Optical density (OD) was read at 450-630 nm in a 96-well plate reader within 30 minutes of sulphuric acid addition and analysed using GraphPad Prism software (GraphPad Software, Inc.).
In general terms: ELISA stands for enzyme-linked immunosorbent assay.

A further assay deals with T2, streptavidin (UniProt P22629 37-163, limits assumed).
T2 construct: negative control in the ELISA; also called Streptavidin plates (Thermo Scientific, 15500)
T2 sequence (P22629 37-163 limits assumed): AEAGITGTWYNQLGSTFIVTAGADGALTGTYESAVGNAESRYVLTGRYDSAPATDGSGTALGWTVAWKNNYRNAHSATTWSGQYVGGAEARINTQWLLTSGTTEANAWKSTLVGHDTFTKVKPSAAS
Kind of assay: ELISA on streptavidin plates, mAb 0.1 to 300 nM. The procedure:
as §1

Another assay concerns the target T3, mFc-Avi (mouse, UniProt P01863 99-330 = IgG part).
T3 construct: mouse Fc domain with Avi tag; negative control in the ELISA
T3 chain: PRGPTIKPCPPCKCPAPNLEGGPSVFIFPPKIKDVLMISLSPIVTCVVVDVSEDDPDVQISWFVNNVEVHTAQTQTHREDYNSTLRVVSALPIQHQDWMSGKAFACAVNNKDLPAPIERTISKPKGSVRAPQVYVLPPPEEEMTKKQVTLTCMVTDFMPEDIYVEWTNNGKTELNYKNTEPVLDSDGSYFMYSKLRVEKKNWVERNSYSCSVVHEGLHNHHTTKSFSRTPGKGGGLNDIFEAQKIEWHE
Kind of assay: ELISA on streptavidin plates, mAb 0.1 to 300 nM. The procedure:
as §1

The target in a further assay is T4, TNFRSF1B-Fc (human, UniProt P20333 23-257).
T4 construct: bought; also called TNFRSF1B (R&D Systems, 726-R2-050); not shown: Fc part of the bought fusion
T4 sequence (looked up): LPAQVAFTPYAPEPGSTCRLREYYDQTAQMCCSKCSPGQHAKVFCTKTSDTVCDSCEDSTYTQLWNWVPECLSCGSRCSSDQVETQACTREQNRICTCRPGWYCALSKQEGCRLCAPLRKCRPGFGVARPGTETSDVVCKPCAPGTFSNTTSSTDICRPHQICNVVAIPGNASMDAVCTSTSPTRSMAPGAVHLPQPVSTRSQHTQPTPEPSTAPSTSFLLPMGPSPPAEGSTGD
Put plainly: SPR, antigen immobilised on CM5 chip. Here is the method:
(§2) Flow cell 1 was run as a blank immobilisation. The five FS20-22-49AA/FS30 mAb² were diluted to 1 μM and 1 nM in 1×HBS-EP buffer (GE Healthcare, product code BR100188), allowed to flow over the chip for 3 min and then allowed to dissociate for 4 minutes. A 30-second injection of 10 mM glycine pH 1.5 was used for regeneration. […] Binding levels were determined at the end of the association phase and compared.
(§3) Specificity was tested against the same five human TNFRSF members closely-related to CD137 (TNFRSF1A, TNFRSF1B, GITR, NGFR and CD40) plus an additional closely-related TNFRSF member, human DR6 (DR6-Fc; R&D Systems, 144-DR-100), using SPR as described in Example 3.1.
In general terms: Surface plasmon resonance follows binding to a sensor surface in real time, without labels.

The target of a further assay is T5, NGFR-Fc (human, UniProt P08138 29-250).
T5 construct: bought; also called NGFR (R&D Systems, 367-NR-050/CF); not shown: Fc part of the bought fusion
T5 sequence (looked up): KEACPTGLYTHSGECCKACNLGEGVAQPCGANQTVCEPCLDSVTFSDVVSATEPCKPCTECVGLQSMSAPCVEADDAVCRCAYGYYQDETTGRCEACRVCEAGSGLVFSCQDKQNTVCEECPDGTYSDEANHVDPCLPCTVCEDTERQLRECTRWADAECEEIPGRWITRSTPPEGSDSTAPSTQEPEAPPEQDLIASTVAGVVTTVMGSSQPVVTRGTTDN
Put plainly: SPR, antigen immobilised on CM5 chip. Here is the method:
as §2, §3

Another assay has as its target T6, TNFRSF1A-Fc (human, UniProt P19438 30-211, limits assumed).
T6 construct: bought; also called TNFRSF1A (R&D Systems, 372-RI-050/CF); not shown: Fc part of the bought fusion
T6 sequence (looked up): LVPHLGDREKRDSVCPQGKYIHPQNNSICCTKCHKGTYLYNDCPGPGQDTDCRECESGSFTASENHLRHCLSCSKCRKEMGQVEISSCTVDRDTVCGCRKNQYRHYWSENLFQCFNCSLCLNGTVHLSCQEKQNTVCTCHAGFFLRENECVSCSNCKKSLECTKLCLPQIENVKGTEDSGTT
Kind of assay: SPR, antigen immobilised on CM5 chip. Here is the method: as §2, §3

A further assay addresses T7, GITR-hFc-Avi (human, UniProt Q9Y5U5 26-161).
T7 construct: in-house produced; not shown: hFc and Avi part
T7 sequence: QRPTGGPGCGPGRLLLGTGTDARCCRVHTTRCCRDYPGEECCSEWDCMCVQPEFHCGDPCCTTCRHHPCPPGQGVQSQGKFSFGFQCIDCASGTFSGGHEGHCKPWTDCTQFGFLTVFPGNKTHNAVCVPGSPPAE
Put plainly: SPR, antigen immobilised on CM5 chip. Here is the method: as §2, §3

Another assay deals with T8, CD40-mFc (human, UniProt P25942 21-193).
T8 construct: in-house produced; not shown: mFc part
T8 sequence (P25942 21-193): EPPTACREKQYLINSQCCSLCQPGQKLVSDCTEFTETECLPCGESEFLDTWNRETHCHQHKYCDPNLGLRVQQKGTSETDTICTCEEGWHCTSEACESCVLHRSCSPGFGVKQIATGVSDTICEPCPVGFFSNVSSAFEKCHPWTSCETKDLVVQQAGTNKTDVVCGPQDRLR
Kind of assay: SPR, antigen immobilised on CM5 chip. Here is the method:
as §2, §3

The target in assay [2] is T9, human CD137 on DO11.10-hCD137 cells (human, UniProt Q07011 24-255).
T9 construct: full-length human CD137 over-expressed on DO11.10 cells by lentiviral transduction; also called cell surface-expressed human CD137
Put plainly: flow cytometry on DO11.10-hCD137 cells, GMFI vs concentration. The procedure:
(§4) Non-specific binding was also assessed by testing binding to DO11.10 cells and HEK293 cells lacking CD137 expression.
(§5) Briefly, DO11.10, HEK293, DO11.10-hCD137 or DO11.10-cCD137 suspensions were prepared in PBS containing 2% BSA (Sigma, A7906) and seeded at 4×10^6 cell/ml with 50 µl/well in V-bottomed 96-well plates (Costar, 3897). mAb dilutions (1·10^-6-100 nM, 10-fold dilutions) were prepared at 2× the final concentration in triplicate in 1×DPBS (Gibco, 14190-094). […] The cells were washed once with PBS and resuspended in 100 µl of PBS containing DAPI (Biotium, 40043) at 1 µg/ml. The cells were analysed using a Canto II flow cytometer (BD Bioscience). Dead cells were excluded and the fluorescence in the FITC channel (488 nm/530/30) was measured. The geometric mean fluorescence intensity (GMFI) values were plotted vs the log concentration of antibody and the resulting curves were fitted using the log (agonist) vs response equation in GraphPad Prism.
Target sequence in this assay (Q07011 24-255): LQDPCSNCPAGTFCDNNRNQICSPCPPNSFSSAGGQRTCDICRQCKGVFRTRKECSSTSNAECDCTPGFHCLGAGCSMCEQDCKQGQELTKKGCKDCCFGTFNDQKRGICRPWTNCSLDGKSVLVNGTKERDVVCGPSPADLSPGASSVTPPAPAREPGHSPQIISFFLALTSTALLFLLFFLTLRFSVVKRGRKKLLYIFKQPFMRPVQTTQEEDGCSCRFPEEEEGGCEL
(In general: Flow cytometry measures light scatter and fluorescence of single cells or particles in a stream.)

Assay [3] concerns the target T10, cyno CD137 on DO11.10-cCD137 cells (cynomolgus, UniProt Q07011 24-255 (human entry)).
T10 construct: full-length cyno CD137 over-expressed on DO11.10 cells; also called cell surface-expressed cyno CD137
T10 chain: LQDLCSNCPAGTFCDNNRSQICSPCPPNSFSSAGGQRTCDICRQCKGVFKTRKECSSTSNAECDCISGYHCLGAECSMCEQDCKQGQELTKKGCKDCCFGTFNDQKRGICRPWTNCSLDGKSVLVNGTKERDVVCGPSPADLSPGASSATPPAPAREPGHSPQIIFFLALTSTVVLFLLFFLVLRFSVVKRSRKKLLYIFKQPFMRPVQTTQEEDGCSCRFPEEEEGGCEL
Put plainly: flow cytometry on DO11.10-cCD137 cells, GMFI vs concentration. Here is the method:
as §4, §5

Assay [4] has as its target T9, human CD137 on DO11.10-hCD137 cells. Put plainly: cell binding at 10 nM to DO11.10-hCD137 cells, against the parent FS20-22-49AA/FS30-5.
Target sequence in this assay (Q07011 24-255): as the sequence (Q07011 24-255) above
For assay [5] the target is unchanged. Put plainly: cell-based or functional assay.
Target sequence in this assay (Q07011 24-255): as the sequence (Q07011 24-255) above
Assay [6] shares this target. Put plainly: cell binding at 10 nM to DO11.10-hCD137 cells, against the parent FS20-22-49AA/FS30-16.

Where a chain is given by its changes, count along the chain named.

human CD137 on primary human CD8+ T cells, sequence (Q07011 24-255): as the sequence (Q07011 24-255) above

B1: G1AA/FS30-15 (antibody, human IgG1, kappa, L234A L235A, V domains shown)
VH: EVQLLESGGGLVQPGGSLRLSCAASGFTFSGSGMSWVRQAPGKGLEWVSIIYSTNGDTDYADSVKGRFTISRDNSKNTLYLQMNSLRAEDTAVYYCARDFYDIANYYAFDYWGQGTLVTVSS
VL: EIVLTQSPGTLSLSPGERATLSCRASQSVSSSYLAWYQQKPGQAPRLLIYGASSRATGIPDRFSGSGSGTDFTLTISRLEPEDFAVYYCQQAYYDPITFGQGTKVEIKR
notes: human IgG1 with LALA mutation in CH2; also called FS30-15 mAb
With B1, the “Activity of non-crosslinked mAbs at 100 nM (hIL-2 pg/ml)” value in assay [1] came out at 449 pg/mL. Besides, the “EC50 (nM), hIL-2 release, primary human CD8+ T cell activation assay, crosslinked mAb” value in assay [1] worked out at 8.5 nM. The “Emax (hIL-2 pg/ml), crosslinked mAb” value in assay [1] is 11100 pg/mL. Moreover, the binding result with human OX40-mFc is “no binding (tested: 300 nM)”; with streptavidin it was “no binding (tested: 300 nM)”; in the assay with mFc-Avi it was “no binding (tested: 300 nM)”; in the assay with TNFRSF1B-Fc, “binds”; with NGFR-Fc, “binds”; in the assay with TNFRSF1A-Fc, “binds”. Also, the binding result in the assay with GITR-hFc-Avi and with CD40-mFc was “binds” in each case. Further, the EC50 is 0.15 nM in assay [2] and 0.31 nM in [3].

B2: FS20-22-49AA/FS30-5 variant, Methionine (100H) to L (bispecific antibody, V domains shown)
VH: EVQLLESGGGLVQPGGSLRLNCAASGFTFSSYAMSWVRQAPGKGLEWVSAISGSGGSTYYADSVKGRFTISRDNSKNTLYLQMNSLRAEDTAVYYCARSYDKYWGSSMYSGLDYWGQGTLVTVSS
VL: EIVLTQSPGTLSLSPGERATLSCRASQSVSSSYLAWYQQKPGQAPRLLIYGASSRATGIPDRFSGSGSGTDFTLTISRLEPEDFAVYYCQQYYSYYPVTFGQGTKVEIKR
Regarding B2, the “fold change of cell binding at 10 nM against the parent clone” value (“fold change of cell binding at 10 nM” for short) in assay [4] was less than 1.3 fold. In assay [5], the “DO11.10-hCD137 T cell activation assay EC50 (nM), crosslinked” value was determined as 5.9 nM.

B3: FS20-22-49AA/FS30-16 variant, Methionine (100A) to F (bispecific antibody, V domains shown)
VH: EVQLLESGGGLVQPGGSLRLSCAASGFTFSNYAMHWVRQAPGKGLEWVSTIDPTDGATNYADSVKGRFTISRDNSKNTLYLQMNSLRAEDTAVYYCARSKYYTYFQYVALDYWGQGTLVTVSS
VL: B2 VL with Y92G, Y93S, S94R, Y95F, Y96F, V98I
notes: Single-site variant of the parent mAb^2 FS20-22-49AA/FS30-16
For the molecule B3, the “fold change of cell binding at 10 nM” value in [6] is less than 1.6 fold.

B4: FS20-22-49AA/FS30-16 variant, Methionine (100A) to P (bispecific antibody, V domains shown)
VH: B3 VH with F105P
VL: B2 VL with Y92G, Y93S, S94R, Y95F, Y96F, V98I
notes: as for B3
As to B4, the “fold change of cell binding at 10 nM” value in [6] was less than 1.6 fold.

In general, EC50 refers to the concentration needed to bring the measured effect to its halfway point.
